Patent US20230257470A1 (published 2023)
Numbering of substitutions follows the chain as printed. Names and notes keep the numbering of the source.

How the values were obtained:
human FcγRIIb [1] = molecular target: T1, human FcγRIIb (human, UniProt P31994 43-217, limits assumed); experiment: SPR (Biacore T100), antibody captured by Protein L, FcγR as analyte, pH 7.4, 25 C
T1 construct: Soluble analyte in SPR; also called hFcgRIIb; FcgRIIb
T1 sequence: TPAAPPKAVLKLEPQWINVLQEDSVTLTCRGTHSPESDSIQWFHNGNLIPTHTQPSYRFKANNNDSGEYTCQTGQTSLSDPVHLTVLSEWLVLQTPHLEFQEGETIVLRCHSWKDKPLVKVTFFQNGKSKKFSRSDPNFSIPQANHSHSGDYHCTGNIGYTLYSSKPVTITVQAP
Method: (§1) Interaction of these antibodies with FcγRIIa(R) and FcγRIIb was analyzed using the BIACORE™ T100 surface plasmon resonance system (GE Healthcare). Measurements were carried out at 25° C. using a buffer consisting of 20 mM N-(2-acetamido)-2-aminoethanesulfonic acid (ACES), 150 mM NaCl and 0.05% polysorbate 20 (Tween 20®) (pH 7.4) for the running buffer. The Series S Sensor Chip CM4 (GE Healthcare) was used after immobilizing Protein L by amine coupling. […] Antibody captured on the chip was washed by reacting with 10 mM glycine-HCl (pH 1.5) following measurement, and the chip regenerated in this manner was used repeatedly.
(§2) Measurement results were analyzed using the BIACORE™ Evaluation Software. Antibody was captured by Protein L, and the amount of change in a sensorgram before and after the antibody was captured was defined as X1. […]

[2] = molecular target: T2, human FcγRIIa(R) (allotype R131) (human, UniProt P12318 36-217); experiment: as above
T2 construct: Soluble analyte in SPR; also called hFcgRIIa(R); FcgRIIaR
T2 chain: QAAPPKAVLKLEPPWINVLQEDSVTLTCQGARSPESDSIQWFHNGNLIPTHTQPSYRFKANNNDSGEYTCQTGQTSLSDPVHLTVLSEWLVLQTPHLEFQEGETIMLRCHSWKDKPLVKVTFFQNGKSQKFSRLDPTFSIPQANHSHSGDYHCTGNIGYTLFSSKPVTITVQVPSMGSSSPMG
Method: as §1, §2

human FcγRIIb [3] = molecular target: T3, human FcγRIIb (human, UniProt P31994 43-217); experiment: ratio of SPR KD values of the same variant: KD for FcγRIIaR / KD for FcγRIIb
T3 construct: also called FcγRIIb extracellular region; FcγIIB
T3 sequence: T1 sequence
Method: (§3) Next, interaction between these antibodies and FcγR was analyzed kinetically using the BIACORE™ T100 (GE Healthcare). The interaction was measured at a temperature of 25° C. using HBS-EP+ (GE Healthcare) for the running buffer. The Series S Sensor Chip CM5 (GE Healthcare) was used after immobilizing Protein A by amine coupling. […] Antibody captured on the chip was washed by allowing 10 mM glycine-HCl (pH 1.5) to react following measurement. The chip regenerated in this manner was used repeatedly. The dissociation constant KD (mol/L) was calculated from the association rate constant ka (L/mol/s) and dissociation rate constant kd (1/s) as calculated by global-fitting the measurement results with a 1:1 Langmuir binding model using the BIACORE™ Evaluation Software.
(§4) Furthermore, KD(IIaR)/KD(IIb) and KD(IIaH)/KD(IIb) in the table respectively show the value obtained by dividing the KD value of each variant for FcγRIIaR by the KD value of each variant for FcγRIIb, and the value obtained by dividing the KD value of each variant for FcγRIIaH by the KD value of each variant for FcγRIIb.

human FcγRIIb [4] = molecular target: T3, human FcγRIIb; experiment: ratio of SPR KD values for FcγRIIb; reference: parent polypeptide IL6R-F11/IL6R-L
Method: as §3, §4

human FcγRIa [5] = molecular target: T4, human FcγRIa (human, UniProt P12314 16-292, limits assumed); experiment: SPR (Biacore), antibody captured, FcγR as analyte, method of Example 14
T4 construct: also called CD64
T4 sequence (P12314 16-292 limits assumed): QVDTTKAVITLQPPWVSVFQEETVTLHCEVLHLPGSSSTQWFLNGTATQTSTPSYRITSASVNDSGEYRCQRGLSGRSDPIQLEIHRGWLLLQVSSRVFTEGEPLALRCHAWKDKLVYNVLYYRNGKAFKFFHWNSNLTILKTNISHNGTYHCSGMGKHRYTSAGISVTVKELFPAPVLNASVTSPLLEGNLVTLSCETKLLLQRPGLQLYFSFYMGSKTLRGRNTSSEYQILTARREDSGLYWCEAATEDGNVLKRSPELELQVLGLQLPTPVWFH
Method: as §3, §4

human FcγRIIb [6] = molecular target: T3, human FcγRIIb; experiment: as above
Method: as §3, §4

human FcγRIIa type R [7] = molecular target: T5, human FcγRIIa type R (human, UniProt P12318 36-217); experiment: as above
T5 construct: also called FcγRIIaR; FcγRIIa(R)
T5 chain: T2 chain
Method: as §3, §4

human FcγRIIb [8] = molecular target: T3, human FcγRIIb; experiment: ratio of SPR KD values of the same variant: KD for FcγRIIaH / KD for FcγRIIb
Method: as §3, §4

human FcγRIIIa(F) [9] = molecular target: T6, human FcγRIIIa(F) (human, UniProt P08637 17-208, limits assumed); experiment: SPR (Biacore), antibody captured on Protein L, human FcgR injected, pH 7.4, 25 C; normalised to captured amount x 1500
T6 construct: also called hFcgRIIIa(F); allotype F158
T6 sequence (P08637 other isoform, or with tags, fused parts or gaps limits assumed): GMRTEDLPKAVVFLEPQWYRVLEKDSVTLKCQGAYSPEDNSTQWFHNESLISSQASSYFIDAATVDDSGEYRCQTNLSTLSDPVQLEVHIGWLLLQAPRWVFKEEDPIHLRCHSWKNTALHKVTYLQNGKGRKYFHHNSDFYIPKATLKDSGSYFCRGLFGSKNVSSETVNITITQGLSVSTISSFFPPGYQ
Method: Binding activity between the antibodies and human FcγRIa, FcγRIIa(H), FcγRIIa(R), FcγRIIb and FcγRIIIa(F) (hereinafter referred to as human FcγRs) was evaluated using the BIACORE™ T100 or T200 surface plasmon resonance system (GE Healthcare). The antibodies being tested were captured by Protein L (ACTIGEN® protein (Alltech)) that was immobilized in suitable amounts on the CM4 Sensor Chip (GE Healthcare) by amine coupling. Next, the diluted human FcγRs and a running buffer used as a blank were injected to allow interaction with the antibodies captured on the sensor chip. A buffer consisting of 20 mmol/L N-(2-acetamido)-2-aminoethanesulfonic acid (ACES), 150 mmol/L NaCl and 0.05% (w/v) polysorbate 20 (Tween 20®) (pH 7.4) was used for the running buffer, and this buffer was also used to dilute the human FcγRs. 10 mmol/L glycine-HCl (pH 1.5) was used to regenerate the sensor chip. All measurements were carried out at 25° C.
Binding activity to human FcγRs can be represented by the relative binding activity to human FcγRs. Antibody was captured by Protein L, and the amount of change in a sensorgram before and after the antibody was captured was defined as X1. […]

human FcγRIIa(H) [10] = molecular target: T7, human FcγRIIa(H) (human, UniProt P12318 36-217); experiment: SPR (Biacore), antibody captured on chip, FcgR injected, HBS-EP+, 25 C; bound amount corrected by captured amount; reference itself
T7 construct: also called hFcgRIIa(H); FcγRIIa type H
T7 sequence: T2 chain with R133H

human FcγRIIb [11] = molecular target: T8, human FcγRIIb (human, UniProt P31994 43-217, limits assumed); experiment: as above
T8 construct: also called hFcgRIIb
T8 sequence: T1 sequence

human FcγRIa [12] = molecular target: T9, human FcγRIa (human, UniProt P12314 16-292, limits assumed); experiment: as above
T9 construct: also called hFcgRIa
T9 sequence (P12314 16-292 limits assumed): as the sequence (P12314 16-292 limits assumed) above

human FcγRIIIa(F) [13] = molecular target: T6, human FcγRIIIa(F); experiment: as above
human FcγRIIa(R) [14] = molecular target: T10, human FcγRIIa(R) (human, UniProt P12318 36-217); experiment: as above
T10 construct: also called hFcgRIIa(R); FcγRIIa type R
T10 chain: T2 chain

human FcγRIIa(H) [15] = molecular target: T7, human FcγRIIa(H); experiment: SPR (Biacore), antibody captured on chip, FcgR injected, HBS-EP+, 25 C; bound amount corrected by captured amount; reference GpH7-G1d/GpL16-k0
Method: (§5) Interaction between each modified antibody and Fcγ receptor prepared in the manner described above was analyzed using the BIACORE™ T100 surface plasmon resonance system (GE Healthcare), BIACORE™ T200 surface plasmon resonance system (GE Healthcare), BIACORE™ A100 surface plasmon resonance system or BIACORE™ 4000 surface plasmon resonance system. HBS-EP+(GE Healthcare) was used for the running buffer, and measurements were carried out at 25° C. The chips used were chips in which antigen peptides, Protein A (Thermo Scientific), Protein A/G (Thermo Scientific) or Protein L (ACTIGEN® protein (Alltech or BioVision) were immobilized on the Series S Sensor Chip CM5 (GE Healthcare) or Series S Sensor Chip CM4 (GE Healthcare) by amine coupling, or chips in which preliminarily biotinylated antigen peptides were allowed to interact and then immobilized on the Series S Sensor Chip SA (certified) (GE Healthcare). The target antibodies were captured on these sensor chips, Fcγ receptor diluted with the running buffer was allowed to interact, followed by measurement of the amount of bound antibody. The amounts bound were compared between antibodies. However, since the amount of Fcγ receptor bound depends on the amount of captured antibody, the values used for comparison were first corrected by dividing the amount of Fcγ receptor bound by the captured amount of each antibody. Through reaction with 10 mM glycine-HCl at pH 1.5, the sensor chips were regenerated by washing off antibody captured on the sensor chips and used repeatedly.

human FcγRIIb [16] = molecular target: T8, human FcγRIIb; experiment: as above
Method: as §5

human FcγRIa [17] = molecular target: T9, human FcγRIa; experiment: as above
Method: as §5

human FcγRIIIa(F) [18] = molecular target: T6, human FcγRIIIa(F); experiment: as above
Method: as §5

human FcγRIIa(R) [19] = molecular target: T10, human FcγRIIa(R); experiment: as above
Method: as §5

human FcγRIIa type R [20] = molecular target: T11, human FcγRIIa type R (human, UniProt P12318 36-217); experiment: SPR (Biacore), amount of FcγR bound to captured antibody relative to IL6R-BF648/IL6R-L x100
T11 construct: also called FcgRIIaR; FcγRIIa(R)
T11 chain: T2 chain
Method: According to the following method, relative binding activities were calculated for the results of analyzing interactions with the respective FcγRs.

human FcγRIIIa(F) [21] = molecular target: T12, human FcγRIIIa(F) (human, UniProt P08637 17-208, limits assumed); experiment: SPR, captured antibody, FcγR analyte; bound amount per captured antibody
T12 construct: also called FcgRIIIaF; FcγRIIIa allotype F158
T12 sequence (P08637 other isoform, or with tags, fused parts or gaps limits assumed): as the sequence (P08637 other isoform, or with tags, fused parts or gaps limits assumed) above
Method: as §5
(§6) Binding strength was evaluated according to the following method based on the results of analyzing the interaction with each FcγR. […] That value was then further multiplied by 100, and the resulting value was used as an indicator of relative binding activity to each FcγR.

human FcγRIIb [22] = molecular target: T13, human FcγRIIb (human, UniProt P31994 43-217, limits assumed); experiment: as above
T13 construct: also called FcgRIIb; FcγIIB
T13 sequence: T1 sequence
Method: as §5, §6

human FcγRIIa(R) [23] = molecular target: T14, human FcγRIIa(R) (human, UniProt P12318 36-217); experiment: SPR, captured antibody, FcγR as analyte
T14 construct: Soluble analyte in SPR; also called FcgRIIaR; FcγRIIa type R
T14 chain: T2 chain
Method: as §5, §6

human FcγRIIb [24] = molecular target: T15, human FcγRIIb (human, UniProt P31994 43-217, limits assumed); experiment: SPR, captured antibody, FcγR as analyte
T15 construct: Soluble analyte in SPR; also called FcgRIIb; FcγIIB
T15 sequence: T1 sequence
Method: as §5, §6

human FcγRIIa(H) [25] = molecular target: T16, human FcγRIIa(H) (human, UniProt P12318 36-217); experiment: SPR, captured antibody, FcγR as analyte
T16 construct: Soluble analyte in SPR; also called FcgRIIaH; FcγRIIa type H
T16 sequence: T2 chain with R133H
Method: as §5, §6

human FcγRIIIa(F) [26] = molecular target: T17, human FcγRIIIa(F) (human, UniProt P08637 17-208, limits assumed); experiment: SPR, captured antibody, FcγR as analyte
T17 construct: Soluble analyte in SPR; allotype F158 stood in the assay; also called FcgRIIIaF; FcγRIIIa allotype F158
T17 sequence (P08637 other isoform, or with tags, fused parts or gaps limits assumed): as above
Method: as §5, §6

B1: antibody containing VH3-IgG1-F652 for the heavy chain and L(WT)-CK for the light chain (antibody)
heavy: QVQLQESGPGLVKPSETLSLTCAVSGHSISHDHAWSWVRQPPGEGLEWIGFISYSGITNYNPSLQGRVTISRDNSKNTLYLQMNSLRAEDTAVYYCARSLARTTAMDYWGEGTLVTVSSASTKGPSVFPLAPSSKSTSGGTAALGCLVKDYFPEPVTVSWNSGALTSGVHTFPAVLQSSGLYSLSSVVTVPSSSLGTQTYICNVNHKPSNTKVDKKVEPKSCDKTHTCPPCPAPELLGGDSVFLFPPKPKDTLYISRTPEVTCVVVDVSHEDPEVKFNWYVDGVEVHNAKTKPREEQYNSTYRVVSVLTVLHQDWLNGKEYKCKVSNKALPAPIEKTISKAKGQPREPQVYTLPPSRDELTKNQVSLTCLVKGFYPSDIAVEWESNGQPENNYKTTPPVLDSDGSFFLYSKLTVDKSRWQQGNVFSCSVMHEALHYHYTQKSLSLSP
light: not shown
notes: VH3-IgG1-F11 with P238D (EU numbering)
In the case of B1, the “BINDING AMOUNT (RU)” value (human FcγRIIb [1]) is reported as 64 RU and the “BINDING AMOUNT (RU)” value [2] is reported as 9.1 RU.

B2: IL6R-PD080/IL6R-L (antibody)
heavy: B1 heavy with G239D
light: DIQMTQSPSSLSASVGDRVTITCRASQDISSYLNWYQQKPGKAPKLLIYYTSRLHSGVPSRFSGSGSGTDFTFTISSLQPEDIATYYCQQGNTLPYTFGQGTKVEIK
notes: Alteration is counted against IL6R-F11; also called G237D/P238D; P238D/G237D
In the case of B2, the “KD(IIaR)/KD(IIb)” value (human FcγRIIb [3]) is reported as 10.7, the “KD(IIb) of parent polypeptide/KD(IIb) of altered polypeptide” value (human FcγRIIb [4]) is reported as 3.5 and the Kd (human FcγRIa [5]) is reported as 140 nM. For the same binder, the Kd (human FcγRIIb [6]) was 2000 nM, the Kd (human FcγRIIa type R [7]) was 21000 nM and the “KD(IIaH)/KD(IIb)” value (human FcγRIIb [8]) was 12.8.

B3: antibody containing VH3-IgG1-F1356 for the heavy chain and L(WT)-CK for the light chain (antibody)
heavy: B1 heavy with G238R, D240P, L330R, Y438V
light: not shown
In the case of B3, the “BINDING AMOUNT (RU)” value (human FcγRIIIa(F) [9]) is reported as 4.09 RU.

B4: GpH7-G1d/GpL16-k0 (antibody)
chain 1: not shown
chain 2: DIVMTQSPLSLPVTPGEPASISCQASESLVHSNRNTYLHWYLQKPGQSPQLLIYKVSNRFSGVPDRFSGSGSGTDFTLKISRVEAEDVGVYYCSQNTHVPPTFGQGTKVEIERTVAAPSVFIFPPSDEQLKSGTASVVCLLNNFYPREAKVQWKVDNALQSGNSQESVTEQDSKDSTYSLSSTLTLSKADYEKHKVYACEVTHQGLSSPVTKSFNRGEC
With B4 the “relative binding activity (amount bound / amount bound by GpH7-G1d/GpL16-k0 x 100)” value (human FcγRIIa(H) [10]) was 100, the “relative binding activity (amount bound / amount bound by GpH7-G1d/GpL16-k0 x 100)” value (human FcγRIIb [11]) was 100 and the “relative binding activity (amount bound / amount bound by GpH7-G1d/GpL16-k0 x 100)” value (human FcγRIa [12]) was 100. The “relative binding activity (amount bound / amount bound by GpH7-G1d/GpL16-k0 x 100)” value (human FcγRIIIa(F) [13]) was 100 and the “relative binding activity (amount bound / amount bound by GpH7-G1d/GpL16-k0 x 100)” value (human FcγRIIa(R) [14]) was 100.

B5: GpH7-B3/GpL16-k0 (antibody, human IgG1)
heavy: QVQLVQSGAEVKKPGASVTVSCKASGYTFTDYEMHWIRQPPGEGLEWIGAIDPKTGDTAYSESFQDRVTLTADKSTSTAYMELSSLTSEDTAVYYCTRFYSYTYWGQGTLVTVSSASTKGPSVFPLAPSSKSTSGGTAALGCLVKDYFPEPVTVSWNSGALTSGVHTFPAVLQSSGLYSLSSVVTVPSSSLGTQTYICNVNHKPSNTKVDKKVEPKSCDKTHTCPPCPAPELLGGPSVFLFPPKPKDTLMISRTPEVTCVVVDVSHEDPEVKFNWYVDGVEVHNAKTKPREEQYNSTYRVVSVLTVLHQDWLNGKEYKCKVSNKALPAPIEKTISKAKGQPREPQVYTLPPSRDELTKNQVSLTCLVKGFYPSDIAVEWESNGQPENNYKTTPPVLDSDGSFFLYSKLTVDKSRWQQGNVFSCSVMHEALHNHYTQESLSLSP
light: DIVMTQSPLSLPVTPGEPASISCQASESLVHSNRNTYLHWYLQKPGQSPQLLIYKVSNRFSGVPDRFSGSGSGTDFTLKISRVEAEDVGVYYCSQNTHVPPTFGQGTKVEIE
notes: also called anti-glypican-3 antibody with B3 constant region (G1d with K439E)
For B5, the “relative binding activity (amount bound / amount bound by GpH7-G1d/GpL16-k0 x 100)” value (human FcγRIIa(H) [15]) was 92, the “relative binding activity (amount bound / amount bound by GpH7-G1d/GpL16-k0 x 100)” value (human FcγRIIb [16]) was 88 and the “relative binding activity (amount bound / amount bound by GpH7-G1d/GpL16-k0 x 100)” value (human FcγRIa [17]) was 109. The “relative binding activity (amount bound / amount bound by GpH7-G1d/GpL16-k0 x 100)” value (human FcγRIIIa(F) [18]) was 88 and the “relative binding activity (amount bound / amount bound by GpH7-G1d/GpL16-k0 x 100)” value (human FcγRIIa(R) [19]) was 94.

B6: IL6R-BP195/IL6R-L (antibody, human IgG1, name in EU numbering)
heavy: QVQLQESGPGLVKPSETLSLTCAVSGHSISHDHAWSWVRQPPGEGLEWIGFISYSGITNYNPSLQGRVTISRDNSKNTLYLQMNSLRAEDTAVYYCARSLARTTAMDYWGEGTLVTVSSASTKGPSVFPLAPSSKSTSGGTAALGCLVKDYFPEPVTVSWNSGALTSGVHTFPAVLQSSGLYSLSSVVTVPSSSLGTQTYICNVNHKPSNTKVDKKVEPKSCDKTHTCPPCPAPDYLGDDSVFLFPPKPKDTLMISRTPEVTCVVVDVSDEDGEVKFNWYVDGVEVHNAKTKPREEQDNSTYRVVSVLTVLHQDWLNGKEYKCKVSNAALPKPIEKTISKAKGQPREPQVYTLPPSRDELTKNQVSLTCLVKGFYPSDIAVEWESNGQPENNYKTTPPVLDSDGSFFLYSKLTVDKSRWQQGNVFSCSVMHEALHNHYTQESLSLSP
light: B2 light
notes: Anti-human IL-6 receptor IgG1 Fc variant; also called E233D/L234Y/G237D/P238D/H268D/P271G/Y296D/K326A/A330K; copies: 2 + 2
With B6 the “relative binding activity” value (human FcγRIIa type R [20]) was 661 % of IL6R-BF648/IL6R-L.

B7: GpH7-B3 G236R/GpL16-k0 (antibody, human IgG1)
heavy: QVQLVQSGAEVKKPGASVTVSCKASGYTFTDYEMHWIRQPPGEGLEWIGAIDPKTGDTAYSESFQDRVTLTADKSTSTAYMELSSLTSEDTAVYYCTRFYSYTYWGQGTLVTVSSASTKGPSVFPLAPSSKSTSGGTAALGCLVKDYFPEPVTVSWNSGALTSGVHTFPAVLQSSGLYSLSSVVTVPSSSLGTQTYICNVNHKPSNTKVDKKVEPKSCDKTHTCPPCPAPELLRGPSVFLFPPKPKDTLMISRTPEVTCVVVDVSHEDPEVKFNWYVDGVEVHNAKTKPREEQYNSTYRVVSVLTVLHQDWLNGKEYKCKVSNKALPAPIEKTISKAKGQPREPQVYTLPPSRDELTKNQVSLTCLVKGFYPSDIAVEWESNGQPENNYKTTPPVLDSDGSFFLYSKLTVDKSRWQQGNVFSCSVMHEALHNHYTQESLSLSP
light: B5 light
notes: anti-glypican-3 IgG1; B3 constant region (G1d with K439E); also called B3 variant; copies: 2 + 2
For B7, the relative binding activity (human FcγRIIIa(F) [21]) was 1 % of GpH7-B3/GpL16-k0.

B8: GpH7-B3 L235R/GpL16-k0 (antibody, human IgG1)
heavy: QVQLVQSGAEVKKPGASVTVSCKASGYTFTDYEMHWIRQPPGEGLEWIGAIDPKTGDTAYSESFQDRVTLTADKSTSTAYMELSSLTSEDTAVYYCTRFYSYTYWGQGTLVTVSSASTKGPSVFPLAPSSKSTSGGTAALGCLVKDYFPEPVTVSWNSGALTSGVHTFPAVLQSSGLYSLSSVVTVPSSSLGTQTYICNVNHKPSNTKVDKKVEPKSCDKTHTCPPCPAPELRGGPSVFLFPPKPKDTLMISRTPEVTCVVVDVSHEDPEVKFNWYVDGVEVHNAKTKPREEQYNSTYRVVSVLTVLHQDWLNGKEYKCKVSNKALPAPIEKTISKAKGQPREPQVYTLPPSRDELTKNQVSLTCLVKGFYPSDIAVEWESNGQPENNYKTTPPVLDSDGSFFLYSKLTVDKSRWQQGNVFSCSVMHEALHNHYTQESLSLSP
light: B5 light
notes: as for B7
In the case of B8, the relative binding activity (human FcγRIIb [22]) is reported as 2 % of GpH7-B3/GpL16-k0.

B9: GpH7-B3 variant D265F/GpL16-k0 (antibody, human IgG1)
heavy: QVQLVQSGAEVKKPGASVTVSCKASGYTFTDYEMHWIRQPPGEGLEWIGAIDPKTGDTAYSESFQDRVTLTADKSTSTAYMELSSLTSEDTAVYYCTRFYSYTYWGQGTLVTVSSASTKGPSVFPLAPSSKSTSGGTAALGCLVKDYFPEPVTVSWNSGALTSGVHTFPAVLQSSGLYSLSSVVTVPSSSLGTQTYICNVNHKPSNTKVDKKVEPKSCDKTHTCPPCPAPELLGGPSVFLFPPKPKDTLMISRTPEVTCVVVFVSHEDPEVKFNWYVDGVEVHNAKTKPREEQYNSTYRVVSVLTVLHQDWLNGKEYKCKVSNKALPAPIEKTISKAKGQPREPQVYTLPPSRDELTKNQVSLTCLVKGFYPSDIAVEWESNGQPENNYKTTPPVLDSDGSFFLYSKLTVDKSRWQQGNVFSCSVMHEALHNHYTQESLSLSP
light: B5 light
notes: copies: 2 + 2
In the case of B9, the relative binding activity (human FcγRIIa(R) [23]) is reported as 1 % of GpH7-B3/GpL16-k0.

B10: GpH7-B3 variant P238K/GpL16-k0 (antibody, human IgG1)
heavy: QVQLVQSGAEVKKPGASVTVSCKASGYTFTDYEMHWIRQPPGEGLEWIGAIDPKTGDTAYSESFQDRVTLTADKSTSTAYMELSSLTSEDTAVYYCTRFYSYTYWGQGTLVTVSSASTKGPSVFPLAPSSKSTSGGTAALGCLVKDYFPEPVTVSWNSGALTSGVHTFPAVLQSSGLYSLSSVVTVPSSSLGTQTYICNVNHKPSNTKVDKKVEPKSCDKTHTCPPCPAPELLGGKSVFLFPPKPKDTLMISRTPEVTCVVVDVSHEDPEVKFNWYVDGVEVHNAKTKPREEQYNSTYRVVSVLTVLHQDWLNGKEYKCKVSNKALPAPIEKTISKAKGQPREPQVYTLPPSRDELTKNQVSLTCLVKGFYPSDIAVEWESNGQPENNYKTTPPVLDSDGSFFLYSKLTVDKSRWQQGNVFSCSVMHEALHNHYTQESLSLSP
light: B5 light
notes: copies: 2 + 2
With B10 the relative binding activity (human FcγRIIb [24]) was 2 % of GpH7-B3/GpL16-k0 and the relative binding activity (human FcγRIIa(H) [25]) was 1 % of GpH7-B3/GpL16-k0.

B11: GpH7-B3 variant P238W/GpL16-k0 (antibody, human IgG1)
heavy: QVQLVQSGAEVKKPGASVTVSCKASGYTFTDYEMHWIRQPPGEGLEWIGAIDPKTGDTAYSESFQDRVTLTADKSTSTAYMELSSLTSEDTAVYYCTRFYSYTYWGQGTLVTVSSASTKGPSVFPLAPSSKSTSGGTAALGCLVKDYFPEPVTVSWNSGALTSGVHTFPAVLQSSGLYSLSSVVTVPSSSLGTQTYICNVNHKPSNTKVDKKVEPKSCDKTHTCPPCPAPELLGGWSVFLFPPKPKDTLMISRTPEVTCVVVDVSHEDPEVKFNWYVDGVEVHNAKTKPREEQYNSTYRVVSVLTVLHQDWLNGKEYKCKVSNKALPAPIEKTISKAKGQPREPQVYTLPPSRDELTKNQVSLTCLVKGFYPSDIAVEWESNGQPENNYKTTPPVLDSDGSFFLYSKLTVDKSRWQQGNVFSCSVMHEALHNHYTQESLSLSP
light: B5 light
notes: copies: 2 + 2
B11 was tested, and the relative binding activity (human FcγRIIIa(F) [26]) was 1 % of GpH7-B3/GpL16-k0.
